Each block holds one binder with its values, some of them ahead of it. Square brackets hold non-standard residues; d marks the D form. Primed or numbered codes have the meaning given here. * marks the point of attachment. m‑dPEG(4)″ = m-dPEG(4) acid, coupled to Acp (R^111 group of Formula (4)), COCCOCCOCCOCCC(=O)*; m‑dPEG(4) = m-dPEG(4) acid, coupled to Acp, with Acp forms R^111 of Formula (4); 2Nal = N[C@@H](Cc1ccc2ccccc2c1)C(=O)O; Cha = N[C@@H](CC1CCCCC1)C(=O)O; Chg = N[C@H](C(=O)O)C1CCCCC1; Nva = CCC[C@H](N)C(=O)O; Ahx = NCCCCCC(=O)O
Target: T1, myostatin (UniProt O14793 267-375, limits assumed)
T1 sequence (looked up): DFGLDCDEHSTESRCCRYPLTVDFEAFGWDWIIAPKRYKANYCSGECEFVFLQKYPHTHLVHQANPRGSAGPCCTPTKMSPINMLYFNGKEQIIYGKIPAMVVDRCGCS
Assay: cell-based or functional assay

- myostatin inhibitory activity at 1 µM (luciferase reporter assay): ≥ 40 % inhibition
B1: PDM-44 (peptide)
peptide: {m‑dPEG(4)″-Ahx}-WYIE[2Nal]IKIQIISKLRL-NH2
SMILES: CC[C@H](C)[C@H](NC(=O)[C@H](Cc1ccc(O)cc1)NC(=O)[C@H](Cc1c[nH]c2ccccc12)NC(=O)CCCCCNC(=O)CCOCCOCCOCCOC)C(=O)N[C@@H](CCC(=O)O)C(=O)N[C@@H](Cc1ccc2ccccc2c1)C(=O)N[C@H](C(=O)N[C@@H](CCCCN)C(=O)N[C@H](C(=O)N[C@@H](CCC(N)=O)C(=O)N[C@H](C(=O)N[C@H](C(=O)N[C@@H](CO)C(=O)N[C@@H](CCCCN)C(=O)N[C@@H](CC(C)C)C(=O)N[C@@H](CCCNC(=N)N)C(=O)N[C@@H](CC(C)C)C(N)=O)[C@@H](C)CC)[C@@H](C)CC)[C@@H](C)CC)[C@@H](C)CC

- myostatin inhibitory activity at 1 µM (luciferase reporter assay): ≥ 40 % inhibition
Binder: {m‑dPEG(4)-Ahx}-YWIEWIKIQIISKLRL-NH2 [PDM-28]

- myostatin inhibitory activity at 1 µM (luciferase reporter assay): ≥ 40 % inhibition
Binder: H-WYIESIKIQIWSKLRL-NH2 [nPDM-63]

- myostatin inhibitory activity at 0.3 µM (luciferase reporter assay): ≥ 40 % inhibition
- myostatin inhibitory activity at 1 µM (luciferase reporter assay): ≥ 40 % inhibition
Binder: {m‑dPEG(4)-Ahx}-WYIEWIKIQIWSKLRL-NH2 [PDM-55]

- myostatin inhibitory activity at 1 µM (luciferase reporter assay): ≥ 40 % inhibition
Binder: {m‑dPEG(4)-Ahx}-WYIERIKIQIISKLRL-NH2 [PDM-47]

- myostatin inhibitory activity at 0.3 µM (luciferase reporter assay): ≥ 40 % inhibition
Binder: H-WYIQWIKIQIWSKLRL-NH2 [nPDM-55/E31Q]

- myostatin inhibitory activity at 1 µM (luciferase reporter assay): ≥ 40 % inhibition
Binder: {m‑dPEG(4)-Ahx}-YYIESIKIQIISKLRL-NH2 [PDM-61]

- myostatin inhibitory activity at 1 µM (luciferase reporter assay): ≥ 40 % inhibition
Binder: {m‑dPEG(4)-Ahx}-WRIESIKIQIISKLRL-NH2 [PDM-62]

- myostatin inhibitory activity at 0.3 µM (luciferase reporter assay): ≥ 40 % inhibition
- myostatin inhibitory activity at 1 µM (luciferase reporter assay): ≥ 40 % inhibition
Binder: {m‑dPEG(4)-Ahx}-WYIESIKIQIWSKLRL-NH2 [PDM-63]

- myostatin inhibitory activity at 1 µM (luciferase reporter assay): ≥ 40 % inhibition
Binder: {m‑dPEG(4)-Ahx}-WYIELIKIQIISKLRL-NH2 [PDM-45]

- myostatin inhibitory activity at 1 µM (luciferase reporter assay): ≥ 40 % inhibition
B2: PDM-39 (peptide)
peptide: {m‑dPEG(4)″-Ahx}-W[Cha]IEWIKIQIISKLRL-NH2
SMILES: CC[C@H](C)[C@H](NC(=O)[C@H](CC1CCCCC1)NC(=O)[C@H](Cc1c[nH]c2ccccc12)NC(=O)CCCCCNC(=O)CCOCCOCCOCCOC)C(=O)N[C@@H](CCC(=O)O)C(=O)N[C@@H](Cc1c[nH]c2ccccc12)C(=O)N[C@H](C(=O)N[C@@H](CCCCN)C(=O)N[C@H](C(=O)N[C@@H](CCC(N)=O)C(=O)N[C@H](C(=O)N[C@H](C(=O)N[C@@H](CO)C(=O)N[C@@H](CCCCN)C(=O)N[C@@H](CC(C)C)C(=O)N[C@@H](CCCNC(=N)N)C(=O)N[C@@H](CC(C)C)C(N)=O)[C@@H](C)CC)[C@@H](C)CC)[C@@H](C)CC)[C@@H](C)CC

- myostatin inhibitory activity at 1 µM (luciferase reporter assay): ≥ 40 % inhibition
Binder: {m‑dPEG(4)-Ahx}-WSIEWIKIQIISKLRL-NH2 [PDM-43]

- myostatin inhibitory activity at 1 µM (luciferase reporter assay): ≥ 40 % inhibition
B3: PDM-53 (peptide)
peptide: {m‑dPEG(4)″-Ahx}-WYIEWIKIQI[Chg]SKLRL-NH2
SMILES: CC[C@H](C)[C@H](NC(=O)[C@H](Cc1ccc(O)cc1)NC(=O)[C@H](Cc1c[nH]c2ccccc12)NC(=O)CCCCCNC(=O)CCOCCOCCOCCOC)C(=O)N[C@@H](CCC(=O)O)C(=O)N[C@@H](Cc1c[nH]c2ccccc12)C(=O)N[C@H](C(=O)N[C@@H](CCCCN)C(=O)N[C@H](C(=O)N[C@@H](CCC(N)=O)C(=O)N[C@H](C(=O)N[C@H](C(=O)N[C@@H](CO)C(=O)N[C@@H](CCCCN)C(=O)N[C@@H](CC(C)C)C(=O)N[C@@H](CCCNC(=N)N)C(=O)N[C@@H](CC(C)C)C(N)=O)C1CCCCC1)[C@@H](C)CC)[C@@H](C)CC)[C@@H](C)CC

- myostatin inhibitory activity at 0.3 µM (luciferase reporter assay): ≥ 40 % inhibition
- myostatin inhibitory activity at 1 µM (luciferase reporter assay): ≥ 40 % inhibition
B4: nPDM-64 (peptide)
peptide: H-WYIRWIK[Chg]QIWSKLRL-NH2
SMILES: CC[C@H](C)[C@H](NC(=O)[C@H](CCC(N)=O)NC(=O)[C@@H](NC(=O)[C@H](CCCCN)NC(=O)[C@@H](NC(=O)[C@H](Cc1c[nH]c2ccccc12)NC(=O)[C@H](CCCNC(=N)N)NC(=O)[C@@H](NC(=O)[C@H](Cc1ccc(O)cc1)NC(=O)[C@@H](N)Cc1c[nH]c2ccccc12)[C@@H](C)CC)[C@@H](C)CC)C1CCCCC1)C(=O)N[C@@H](Cc1c[nH]c2ccccc12)C(=O)N[C@@H](CO)C(=O)N[C@@H](CCCCN)C(=O)N[C@@H](CC(C)C)C(=O)N[C@@H](CCCNC(=N)N)C(=O)N[C@@H](CC(C)C)C(N)=O

- myostatin inhibitory activity at 1 µM (luciferase reporter assay): ≥ 40 % inhibition
Binder: {m‑dPEG(4)-Ahx}-LYIEWIKIQIISKLRL-NH2 [PDM-34]

- myostatin inhibitory activity at 0.3 µM (luciferase reporter assay): ≥ 40 % inhibition
Binder: H-WYIKWIKIQIWSKLRL-NH2 [nPDM-55/E31K]

- myostatin inhibitory activity at 1 µM (luciferase reporter assay): ≥ 40 % inhibition
Binder: {m‑dPEG(4)-Ahx}-WFIEWIKIQIISKLRL-NH2 [PDM-37]

- myostatin inhibitory activity at 1 µM (luciferase reporter assay): ≥ 40 % inhibition
Binder: {m‑dPEG(4)-Ahx}-WLIEWIKIQIISKLRL-NH2 [PDM-40]

- myostatin inhibitory activity at 1 µM (luciferase reporter assay): ≥ 40 % inhibition
Binder: {m‑dPEG(4)-Ahx}-WHIEWIKIQIISKLRL-NH2 [PDM-41]

- myostatin inhibitory activity at 1 µM (luciferase reporter assay): ≥ 40 % inhibition
Binder: {m‑dPEG(4)-Ahx}-WYIESIKIQIISKLRL-NH2 [PDM-46]

- myostatin inhibitory activity at 1 µM (luciferase reporter assay): ≥ 40 % inhibition
Binder: {m‑dPEG(4)-Ahx}-WYIEWIKIQIFSKLRL-NH2 [PDM-54]

- myostatin inhibitory activity at 0.3 µM (luciferase reporter assay): ≥ 40 % inhibition
- myostatin inhibitory activity at 1 µM (luciferase reporter assay): ≥ 40 % inhibition
Binder: H-WYIEWIKIQIWSKLRL-NH2 [nPDM-55]

- myostatin inhibitory activity at 1 µM (luciferase reporter assay): ≥ 40 % inhibition
Binder: {m‑dPEG(4)-Ahx}-WYIEFIKIQIISKIRL-NH2 [PDM-49]

- myostatin inhibitory activity at 0.3 µM (luciferase reporter assay): ≥ 40 % inhibition
Binder: H-WYIRWIKIQIWSKLRL-NH2 [nPDM-55/E31R]

- myostatin inhibitory activity at 1 µM (luciferase reporter assay): ≥ 40 % inhibition
Binder: {m‑dPEG(4)-Ahx}-WYIEHIKIQIISKIRL-NH2 [PDM-51]

- myostatin inhibitory activity at 1 µM (luciferase reporter assay): ≥ 40 % inhibition
B5: PDM-52 (peptide)
peptide: {m‑dPEG(4)″-Ahx}-WYIEWIKIQI[Nva]SKLRL-NH2
SMILES: CCC[C@H](NC(=O)[C@@H](NC(=O)[C@H](CCC(N)=O)NC(=O)[C@@H](NC(=O)[C@H](CCCCN)NC(=O)[C@@H](NC(=O)[C@H](Cc1c[nH]c2ccccc12)NC(=O)[C@H](CCC(=O)O)NC(=O)[C@@H](NC(=O)[C@H](Cc1ccc(O)cc1)NC(=O)[C@H](Cc1c[nH]c2ccccc12)NC(=O)CCCCCNC(=O)CCOCCOCCOCCOC)[C@@H](C)CC)[C@@H](C)CC)[C@@H](C)CC)[C@@H](C)CC)C(=O)N[C@@H](CO)C(=O)N[C@@H](CCCCN)C(=O)N[C@@H](CC(C)C)C(=O)N[C@@H](CCCNC(=N)N)C(=O)N[C@@H](CC(C)C)C(N)=O

- myostatin inhibitory activity at 1 µM (luciferase reporter assay): ≥ 40 % inhibition
Binder: {m‑dPEG(4)-Ahx}-WYIEWIKIQIYSKLRL-NH2 [PDM-56]

- myostatin inhibitory activity at 1 µM (luciferase reporter assay): ≥ 40 % inhibition
B6: PDM-38 (peptide)
peptide: {m‑dPEG(4)″-Ahx}-W[2Nal]IEWIKIQIISKLRL-NH2
SMILES: CC[C@H](C)[C@H](NC(=O)[C@H](Cc1ccc2ccccc2c1)NC(=O)[C@H](Cc1c[nH]c2ccccc12)NC(=O)CCCCCNC(=O)CCOCCOCCOCCOC)C(=O)N[C@@H](CCC(=O)O)C(=O)N[C@@H](Cc1c[nH]c2ccccc12)C(=O)N[C@H](C(=O)N[C@@H](CCCCN)C(=O)N[C@H](C(=O)N[C@@H](CCC(N)=O)C(=O)N[C@H](C(=O)N[C@H](C(=O)N[C@@H](CO)C(=O)N[C@@H](CCCCN)C(=O)N[C@@H](CC(C)C)C(=O)N[C@@H](CCCNC(=N)N)C(=O)N[C@@H](CC(C)C)C(N)=O)[C@@H](C)CC)[C@@H](C)CC)[C@@H](C)CC)[C@@H](C)CC

- myostatin inhibitory activity at 1 µM (luciferase reporter assay): ≥ 40 % inhibition
Binder: {m‑dPEG(4)-Ahx}-WYIEYIKIQIISKIRL-NH2 [PDM-50]

- myostatin inhibitory activity at 1 µM (luciferase reporter assay): ≥ 40 % inhibition
Binder: {m‑dPEG(4)-Ahx}-WRIEWIKIQIISKLRL-NH2 [PDM-42]

- myostatin inhibitory activity at 1 µM (luciferase reporter assay): ≥ 40 % inhibition
Binder: H-WYIESIKIQIISKLRL-NH2 [nPDM-46]

- myostatin inhibitory activity at 1 µM (luciferase reporter assay): ≥ 40 % inhibition
Binder: {m‑dPEG(4)-Ahx}-HYIEWIKIQIISKLRL-NH2 [PDM-35]

Reference: US20190177370A1 (TOKYO UNIVERSITY OF PHARMACY AND LIFE SCIENCES, published 2019)
